The assay deals with HRgpA-6H (Porphyromonas gingivalis) (UniProt P28784). Put plainly: ELISA, coated HRgpA-6H. A general note: ELISA stands for enzyme-linked immunosorbent assay.

Positions count from the first letter of the chain named. Numbers in names are those of the source. Where “and” joins values, the source holds several entries; their conditions need not be identical. Identical values can stand only once.

B1: KB001 mouse Fab VL S57Q (Fab, V domains shown)
VH: EVQLKQSGPGLVAPSQSLSITCTVSGFSLSIYSVHWVRQPPGKGLEWLGMIWGGGSSDYNSALKSRLSISKDNSKSQVFLKMNSLQTDDTAMYYCARNGNFYAMDYWGQGTSVTVSS
VL: QIVLTQSPAIMSASLGERVTMTCTASSSVSSSFLHWYQQKPGSSPQLWIYSTSNLAQGVPARFSGSGSGTSYSLTISSMEAEDAATYYCHQYHHSPYIYTFGGGTKLEIK
Consider B1, for which the OD450 nm is 0.858 and 0.838; the Ratio OD(Variant)/OD(WT) is 1.05 and 1.03.

B2: KB001 mouse Fab VL S57G (Fab, V domains shown)
VH: B1 VH
VL: B1 VL with Q57G
On to B2, for which the OD450 nm is 0.873 and 0.825; the Ratio OD(Variant)/OD(WT) is 1.07 and 1.01.

B3: KB001 mouse Fab VL T100Y (Fab, V domains shown)
VH: B1 VH
VL: B1 VL with Q57S, T100Y
B3: the OD450 nm turned out to be 0.546 and the Ratio OD(Variant)/OD(WT) stood at 1.04.

B4: KB001 mouse Fab VL T24N (Fab, V domains shown)
VH: B1 VH
VL: B1 VL with T24N, Q57S
As for B4, the OD450 nm is 0.715 and 0.8; the Ratio OD(Variant)/OD(WT) was 0.93 and 1.04.

B5: KB001 mouse Fab VL T100G (Fab, V domains shown)
VH: B1 VH
VL: B1 VL with Q57S, T100G
Turning to B5, the OD450 nm was 0.603 and 0.597; the Ratio OD(Variant)/OD(WT) was 1.15 and 1.14.

B6: KB001 mouse Fab VL T24A (Fab, V domains shown)
VH: B1 VH
VL: B1 VL with T24A, Q57S
For the molecule B6, the OD450 nm came out at 0.757 and the Ratio OD(Variant)/OD(WT) was 0.984.

B7: KB001 mouse Fab VL T24I (Fab, V domains shown)
VH: B1 VH
VL: B1 VL with T24I, Q57S
For the molecule B7, the OD450 nm is 0.741 and the Ratio OD(Variant)/OD(WT) stood at 0.964.

B8: KB001 mouse Fab VL T100R (Fab, V domains shown)
VH: B1 VH
VL: B1 VL with Q57S, T100R
Turning to B8, the OD450 nm worked out at 0.616 and the Ratio OD(Variant)/OD(WT) stood at 1.18.

B9: KB001 mouse Fab VL T100F (Fab, V domains shown)
VH: B1 VH
VL: B1 VL with Q57S, T100F
Turning to B9, the OD450 nm was 0.552 and the Ratio OD(Variant)/OD(WT) is 1.05.

B10: KB001 mouse Fab VL T24M (Fab, V domains shown)
VH: B1 VH
VL: B1 VL with T24M, Q57S
For the molecule B10, the OD450 nm is 0.75 and 0.797; the Ratio OD(Variant)/OD(WT) is 0.975 and 1.04.

B11: KB001 mouse Fab VL T24Q (Fab, V domains shown)
VH: B1 VH
VL: B1 VL with T24Q, Q57S
Turning to B11, the OD450 nm stood at 0.765 and the Ratio OD(Variant)/OD(WT) turned out to be 0.995.

B12: KB001 mouse Fab VL T100H (Fab, V domains shown)
VH: B1 VH
VL: B1 VL with Q57S, T100H
Consider B12, for which the OD450 nm was 0.597 and 0.631; the Ratio OD(Variant)/OD(WT) was 1.14 and 1.21.

B13: KB001 mouse Fab VL Y97E (Fab, V domains shown)
VH: B1 VH
VL: B1 VL with Q57S, Y97E
Take B13: the OD450 nm stood at 0.793 and the Ratio OD(Variant)/OD(WT) was determined as 1.

B14: KB001 mouse Fab VL A25E (Fab, V domains shown)
VH: B1 VH
VL: B1 VL with A25E, Q57S
As to B14, the OD450 nm was found to be 0.655 and the Ratio OD(Variant)/OD(WT) is 0.837.

B15: KB001 mouse Fab VL T100S (Fab, V domains shown)
VH: B1 VH
VL: B1 VL with Q57S, T100S
As to B15, the OD450 nm was 0.602 and 0.664 and 0.625; the Ratio OD(Variant)/OD(WT) was 1.15 and 1.27 and 1.19.

B16: KB001 mouse Fab VL T100Q (Fab, V domains shown)
VH: B1 VH
VL: B1 VL with Q57S, T100Q
Regarding B16, the OD450 nm was 0.586 and 0.596 and 0.604; the Ratio OD(Variant)/OD(WT) is 1.12 and 1.14 and 1.15.

B17: KB001 mouse Fab VL S26T (Fab, V domains shown)
VH: B1 VH
VL: B1 VL with S26T, Q57S
On to B17, for which the OD450 nm was 0.761 and the Ratio OD(Variant)/OD(WT) stood at 0.972.

B18: KB001 mouse Fab VL H90W (Fab, V domains shown)
VH: B1 VH
VL: B1 VL with Q57S, H90W
Regarding B18, the OD450 nm turned out to be 0.913 and the Ratio OD(Variant)/OD(WT) is 1.06.

B19: KB001 mouse Fab VL S26P (Fab, V domains shown)
VH: B1 VH
VL: B1 VL with S26P, Q57S
Regarding B19, the OD450 nm was 0.644 and 0.677; the Ratio OD(Variant)/OD(WT) is 0.822 and 0.865.

B20: KB001 mouse Fab VL S27Y (Fab, V domains shown)
VH: B1 VH
VL: B1 VL with S27Y, Q57S
With B20, the OD450 nm was determined as 0.617 and the Ratio OD(Variant)/OD(WT) amounted to 0.822.

B21: KB001 mouse Fab VL A25Y (Fab, V domains shown)
VH: B1 VH
VL: B1 VL with A25Y, Q57S
Take B21: the OD450 nm is 0.755 and 0.757; the Ratio OD(Variant)/OD(WT) is 0.964 and 0.967.

B22: KB001 mouse Fab VL A25P (Fab, V domains shown)
VH: B1 VH
VL: B1 VL with A25P, Q57S
As for B22, the OD450 nm was 0.742 and 0.766 and 0.749; the Ratio OD(Variant)/OD(WT) is 0.948 and 0.978 and 0.957.

B23: KB001 mouse Fab VL T24K/R18S (Fab, V domains shown)
VH: B1 VH
VL: B1 VL with R18S, T24K, Q57S
Regarding B23, the OD450 nm turned out to be 0.761 and the Ratio OD(Variant)/OD(WT) was 0.99.

B24: KB001 mouse Fab VL T100W (Fab, V domains shown)
VH: B1 VH
VL: B1 VL with Q57S, T100W
With B24, the OD450 nm amounted to 0.585 and the Ratio OD(Variant)/OD(WT) came to 1.12.

B25: KB001 mouse Fab VL S27N (Fab, V domains shown)
VH: B1 VH
VL: B1 VL with S27N, Q57S
Consider B25, for which the OD450 nm is 0.675 and 0.724 and 0.64; the Ratio OD(Variant)/OD(WT) was 0.899 and 0.965 and 0.853.

B26: KB001 mouse Fab VL A25G (Fab, V domains shown)
VH: B1 VH
VL: B1 VL with A25G, Q57S
Consider B26, for which the OD450 nm was 0.668 and 0.699 and 0.673; the Ratio OD(Variant)/OD(WT) is 0.853 and 0.893 and 0.86.

B27: KB001 mouse Fab VL S27L (Fab, V domains shown)
VH: B1 VH
VL: B1 VL with S27L, Q57S
For the molecule B27, the OD450 nm was found to be 0.649 and the Ratio OD(Variant)/OD(WT) stood at 0.865.

B28: KB001 mouse Fab VL T100L (Fab, V domains shown)
VH: B1 VH
VL: B1 VL with Q57S, T100L
B28: the OD450 nm is 0.587 and 0.566; the Ratio OD(Variant)/OD(WT) was 1.12 and 1.08.

B29: KB001 mouse Fab VL T100M (Fab, V domains shown)
VH: B1 VH
VL: B1 VL with Q57S, T100M
With B29, the OD450 nm came to 0.589 and the Ratio OD(Variant)/OD(WT) was determined as 1.12.

B30: KB001 mouse Fab VL S26G (Fab, V domains shown)
VH: B1 VH
VL: B1 VL with S26G, Q57S
On to B30, for which the OD450 nm is 0.73 and the Ratio OD(Variant)/OD(WT) amounted to 0.932.

B31: KB001 mouse Fab VL T24G (Fab, V domains shown)
VH: B1 VH
VL: B1 VL with T24G, Q57S
For the molecule B31, the OD450 nm was 0.686 and 0.735; the Ratio OD(Variant)/OD(WT) is 0.892 and 0.956.

B32: KB001 mouse Fab VL T24N/G67D (Fab, V domains shown)
VH: B1 VH
VL: B1 VL with T24N, Q57S, G67D
As to B32, the OD450 nm came out at 0.755 and the Ratio OD(Variant)/OD(WT) is 0.982.

B33: KB001 mouse Fab VL A25V (Fab, V domains shown)
VH: B1 VH
VL: B1 VL with A25V, Q57S
In the case of B33, the OD450 nm turned out to be 0.768 and the Ratio OD(Variant)/OD(WT) was found to be 0.981.

B34: KB001 mouse Fab VL T24L (Fab, V domains shown)
VH: B1 VH
VL: B1 VL with T24L, Q57S
In the case of B34, the OD450 nm is 0.753 and 0.752 and 0.667; the Ratio OD(Variant)/OD(WT) was 0.979 and 0.978 and 0.867.

B35: KB001 mouse Fab VL T100E (Fab, V domains shown)
VH: B1 VH
VL: B1 VL with Q57S, T100E
B35: the OD450 nm was 0.613 and 0.621 and 0.674; the Ratio OD(Variant)/OD(WT) is 1.17 and 1.19 and 1.29.

B36: KB001 mouse Fab VL S95Q (Fab, V domains shown)
VH: B1 VH
VL: B1 VL with Q57S, S95Q
On to B36, for which the OD450 nm is 0.931 and 0.936 and 0.927; the Ratio OD(Variant)/OD(WT) was 1.01 (2×) and 1.02.

B37: KB001 mouse Fab VL S27H (Fab, V domains shown)
VH: B1 VH
VL: B1 VL with S27H, Q57S
Turning to B37, the OD450 nm is 0.664 and 0.63 and 0.726; the Ratio OD(Variant)/OD(WT) was 0.885 and 0.839 and 0.967.

The values above are taken from patent US20240400654A1.
